B1: canine FVIII-SQ (other, UniProt O18806 20-2343, looked up)
chain: ATRKYYLGAVELSWDYMQSDLLSALHADTSFSSRVPGSLPLTTSVTYRKTVFVEFTDDLFNIAKPRPPWMGLLGPTIQAEVYDTVVIVLKNMASHPVSLHAVGVSYWKASEGAEYEDQTSQKEKEDDNVIPGESHTYVWQVLKENGPMASDPPCLTYSYFSHVDLVKDLNSGLIGALLVCKEGSLAKERTQTLQEFVLLFAVFDEGKSWHSETNASLTQAEAQHELHTINGYVNRSLPGLTVCHKRSVYWHVIGMGTTPEVHSIFLEGHTFLVRNHRQASLEISPITFLTAQTFLMDLGQFLLFCHIPSHQHDGMEAYVKVDSCPEEPQLRMKNNEDKDYDDGLYDSDMDVVSFDDDSSSPFIQIRSVAKKHPKTWVHYIAAEEEDWDYAPSGPTPNDRSHKNLYLNNGPQRIGKKYKKVRFVAYTDETFKTREAIQYESGILGPLLYGEVGDTLLIIFKNQASRPYNIYPHGINYVTPLHTGRLPKGVKHLKDMPILPGEIFKYKWTVTVEDGPTKSDPRCLTRYYSSFINLERDLASGLIGPLLICYKESVDQRGNQMMSDKRNVILFSVFDENRSWYLTENMQRFLPNADVVQPHDPEFQLSNIMHSINGYVFDNLQLSVCLHEVAYWYILSVGAQTDFLSVFFSGYTFKHKMVYEDTLTLFPFSGETVFMSMENPGLWVLGCHNSDFRNRGMTALLKVSSCNRNIDDYYEDTYEDIPTPLLNENNVIKPRSFSQNPPVSKHHQREITVTTLQPEEDKFEYDDTFSIEMKREDFDIYGDYENQGLRSFQKKTRHYFIAAVERLWDYGMSRSPHILRNRAQSGDVQQFKKVVFQEFTDGSFTQPLYRGELNEHLGLLGPYIRAEVEDNIVVTFKNQASRPYSFYSSLISYDEDEGQGAEPRRKFVNPNETKIYFWKVQHHMAPTKDEFDCKAWAYFSDVDLEKDVHSGLIGPLLICRSNTLNPAHGRQVTVQEFALVFTIFDETKSWYFTENLERNCRAPCNVQKEDPTLKENFRFHAINGYVKDTLPGLVMAQDQKVRWYLLSMGSNENIHSIHFSGHVFTVRKKEEYKMAVYNLYPGVFETVEMLPSQVGIWRIECLIGEHLQAGMSTLFLVYSKKCQTPLGMASGHIRDFQITASGQYGQWAPKLARLHYSGSINAWSTKDPFSWIKVDLLAPMIIHGIMTQGARQKFSSLYVSQFIIMYSLDGNKWHSYRGNSTGTLMVFFGNVDSSGIKHNIFNPPIIAQYIRLHPTHYSIRSTLRMELLGCDFNSCSMPLGMESKAISDAQITASSYLSSMLATWSPSQARLHLQGRTNAWRPQANNPKEWLQVDFRKTMKVTGITTQGVKSLLISMYVKEFLISSSQDGHNWTLFLQNGKVKVFQGNRDSSTPVRNRLEPPLVARYVRLHPQSWAHHIALRLEVLGCDTQQPA
notes: also called canine B-domain deleted factor VIII
B2: ADAMTS13 metalloprotease domain alone (enzyme, UniProt Q76LX8 75-289, looked up)
chain: AAGGILHLELLVAVGPDVFQAHQEDTERYVLTNLNIGAELLRDPSLGAQFRVHLVKMVILTEPEGAPNITANLTSSLLSVCGWSQTINPEDDTDPGHADLVLYITRFDLELPDGNRQVRGVTQLGGACSPTWSCLITEDTGFDLGVTIAHEIGHSFGLEHDGAPGSGCGPSGHVMASDGAAPRAGLAWSPCSRRQLLSLLSAGRARCVWDPPRPQ
notes: domain: metalloprotease domain

What was measured:
murine vWF = biological target: T1, murine vWF (murine, UniProt Q8CIZ8 764-2813, limits assumed); assay: microtiter binding assay, immobilised murine vWF
T1 construct: also called immobilized murine vWF

[1] = biological target: T2, von Willebrand factor (VWF), purified plasma-derived, multimeric, native (UniProt P04275 764-2813); assay: pull-down on VWF-Affi-gel 10, western blot with anti-V5 (FIG. 5B); the microtiter result is given with a literature citation
T2 construct: mature; human is implied; also called pvWF; plasma VWF
Experimental: FIG. 5. Binding of ADAMTS13 (or variants) to VWF immobilized on solid surfaces. A. Binding of ADAMTS13 and variants to VWF immobilized on a microtiter plate: FL-A13, delCUB and MDTCS (0-200 nM) were incubated without (control) or with VWF (10 μg/ml, 100 μl/well) immobilized on a microtiter plate for 1 h. The bound ADAMTS13 and variants were determined by mouse anti-V5 IgG, followed by rabbit anti-mouse IgG, peroxidase-conjugated and OPD-H₂O₂. The KD (S) was determined by fitting the data into non-linear regression. B. Binding of ADAMTS13 and variants to immobilized VWF on Affi-gel 10: FL-A13, delCUB, MDTCS and metalloprotease domain (M) (˜50 nM) were incubated at 37° C. for 1 h without (−) or with (+) VWF covalently immobilized onto the Affi-gel 10. After extensive washing with TBS and 20 mM Tris-HCl, pH 7.5, […], the bound ADAMTS13 and variants were eluted from the beads with SDS-gel sample buffer and determined by Western blot with anti-V5. The amount of input FL-A13, delCUB, and MDTCS is the same with the signal of only FL-A13 shown in lane 1 (IN).
The binding of ADAMTS13 to immobilized Affi-gel 10 was also described previously²². […] The bound FL-A13 and variants were eluted from the beads by boiling them at 100° C. for 10 min and detected by Western blotting with anti-V5 IgG as described previously^{22;24;29}.

T1 sequence (Q8CIZ8 764-2813 limits assumed): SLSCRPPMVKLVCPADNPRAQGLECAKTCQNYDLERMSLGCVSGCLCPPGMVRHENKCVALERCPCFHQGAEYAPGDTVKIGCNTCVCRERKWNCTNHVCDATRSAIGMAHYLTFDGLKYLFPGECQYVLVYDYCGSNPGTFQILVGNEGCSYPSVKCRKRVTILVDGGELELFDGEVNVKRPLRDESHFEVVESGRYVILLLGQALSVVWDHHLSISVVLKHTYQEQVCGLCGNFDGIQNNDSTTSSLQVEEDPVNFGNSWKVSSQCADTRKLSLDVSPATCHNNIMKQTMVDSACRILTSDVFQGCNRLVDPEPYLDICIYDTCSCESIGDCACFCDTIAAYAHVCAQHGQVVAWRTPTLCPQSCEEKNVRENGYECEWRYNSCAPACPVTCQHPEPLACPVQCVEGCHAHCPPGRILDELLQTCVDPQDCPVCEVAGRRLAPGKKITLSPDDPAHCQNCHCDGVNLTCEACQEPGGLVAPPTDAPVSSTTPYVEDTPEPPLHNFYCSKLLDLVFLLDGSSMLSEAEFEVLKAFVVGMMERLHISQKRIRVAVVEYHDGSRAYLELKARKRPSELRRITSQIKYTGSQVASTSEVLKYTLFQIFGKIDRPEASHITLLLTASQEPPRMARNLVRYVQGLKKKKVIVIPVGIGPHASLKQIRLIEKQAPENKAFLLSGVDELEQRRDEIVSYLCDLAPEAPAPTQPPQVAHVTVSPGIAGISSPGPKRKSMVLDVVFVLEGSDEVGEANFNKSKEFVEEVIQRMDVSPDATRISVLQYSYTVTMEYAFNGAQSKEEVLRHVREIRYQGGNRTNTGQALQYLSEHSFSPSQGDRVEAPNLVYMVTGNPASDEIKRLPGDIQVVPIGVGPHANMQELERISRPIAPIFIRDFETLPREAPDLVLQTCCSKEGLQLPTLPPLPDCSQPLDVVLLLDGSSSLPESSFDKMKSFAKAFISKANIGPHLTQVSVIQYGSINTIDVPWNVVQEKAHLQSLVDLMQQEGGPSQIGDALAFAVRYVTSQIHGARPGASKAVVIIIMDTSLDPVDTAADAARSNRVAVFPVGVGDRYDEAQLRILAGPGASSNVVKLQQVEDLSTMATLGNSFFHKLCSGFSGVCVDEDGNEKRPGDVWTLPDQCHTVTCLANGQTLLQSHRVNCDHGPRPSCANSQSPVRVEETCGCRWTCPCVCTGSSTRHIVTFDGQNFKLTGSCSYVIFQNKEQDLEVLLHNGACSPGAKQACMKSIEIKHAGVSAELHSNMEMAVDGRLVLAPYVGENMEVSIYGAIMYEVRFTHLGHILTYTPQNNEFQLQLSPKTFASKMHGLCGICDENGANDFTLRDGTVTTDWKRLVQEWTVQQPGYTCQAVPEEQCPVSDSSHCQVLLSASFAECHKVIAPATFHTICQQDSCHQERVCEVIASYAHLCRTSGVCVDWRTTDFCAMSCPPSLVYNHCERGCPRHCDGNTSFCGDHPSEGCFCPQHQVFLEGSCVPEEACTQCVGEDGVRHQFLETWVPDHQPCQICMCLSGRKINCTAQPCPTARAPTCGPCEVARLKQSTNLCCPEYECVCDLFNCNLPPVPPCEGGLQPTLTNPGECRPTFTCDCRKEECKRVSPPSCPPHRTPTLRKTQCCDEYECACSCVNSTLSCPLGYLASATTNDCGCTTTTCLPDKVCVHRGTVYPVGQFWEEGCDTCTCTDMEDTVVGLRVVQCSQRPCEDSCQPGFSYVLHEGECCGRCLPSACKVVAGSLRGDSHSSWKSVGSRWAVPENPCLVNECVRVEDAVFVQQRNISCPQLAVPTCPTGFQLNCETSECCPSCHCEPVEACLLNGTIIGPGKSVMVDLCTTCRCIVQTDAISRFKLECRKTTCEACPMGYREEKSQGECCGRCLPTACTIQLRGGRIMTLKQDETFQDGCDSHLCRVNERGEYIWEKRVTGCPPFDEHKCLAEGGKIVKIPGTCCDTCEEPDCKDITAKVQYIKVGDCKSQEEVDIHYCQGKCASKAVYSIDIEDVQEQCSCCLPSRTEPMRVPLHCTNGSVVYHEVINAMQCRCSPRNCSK

| Binder | Kd (murine vWF) | binding result [1] |
| --- | --- | --- |
| B1 | ~1.7 nM |  |
| B2 |  | no binding |
